Assay results: PMC7613929 (Nature microbiology, 2022)

B1: E. coli FtsN cytoplasmic tail peptide, residues 1-32 (EcFtsN^1-32) [E. coli] / E. coli FtsA (EcFtsA), full length [E. coli] (parent complex)
chain 1: MAQRDYVRRSQPAPSRRKKSTSRKKQRNLPAV
chain 2: MIKATDRKLVVGLEIGTAKVAALVGEVLPDGMVNIIGVGSCPSRGMDKGGVNDLESVVKCVQRAIDQAELMADCQISSVYLALSGKHISCQNEIGMVPISEEEVTQEDVENVVHTAKSVRVRDEHRVLHVIPQEYAIDYQEGIKNPVGLSGVRMQAKVHLITCHNDMAKNIVKAVERCGLKVDQLIFAGLASSYSVLTEDERELGVCVVDIGGGTMDIAVYTGGALRHTKVIPYAGNVVTSDIAYAFGTPPSDAEAIKVRHGCALGSIVGKDESVEVPSVGGRPPRSLQRQTLAEVIEPRYTELLNLVNEEILQLQEKLRQQGVKHHLAAGIVLTGGAAQIEGLAACAQRVFHTQVRIGAPLNITGLTDYAQEPYYSTAVGLLHYGKESHLNGEAEVEKRVTASVGSWIKRLNSWLRKEF

Variants of: B1
Assay: SPR; FtsA immobilised on CM5 chip via amide coupling; peptide 1:2 dilution series from 20 μM; maximum response fixed during fitting (asterisk)

Row | Variant | Kd
1 | chain 1 MAQRDYVRRSQPAPSRRKKSTSASAQRNLPAV [chain 1 R23A, chain 1 K24S, chain 1 K25A] | ~80.6 µM
2 | chain 1 MAQRDYVRRSQPAPSAASASTSRKKQRNLPAV [chain 1 R16A, chain 1 R17A, chain 1 K18S, chain 1 K19A] | ~166 µM
